Test results published in PMC12212125, “Constitutively active Arabidopsis cryptochrome two alleles identified using yeast selection and deep mutational scanning” (The Journal of Biological Chemistry, 2025).

B1: Arabidopsis thaliana cryptochrome 2 (CRY2, UniProt Q96524), residues 1-535 fused after the Gal4 DNA-binding domain (Gal4BD-CRY2(535)); mutagenized window 321-412, Q96524 (parent)
chain: MKMDKKTIVWFRRDLRIEDNPALAAAAHEGSVFPVFIWCPEEEGQFYPGRASRWWMKQSLAHLSQSLKALGSDLTLIKTHNTISAILDCIRVTGATKVVFNHLYDPVSLVRDHTVKEKLVERGISVQSYNGDLLYEPWEIYCEKGKPFTSFNSYWKKCLDMSIESVMLPPPWRLMPITAAAEAIWACSIEELGLENEAEKPSNALLTRAWSPGWSNADKLLNEFIEKQLIDYAKNSKKVVGNSTSLLSPYLHFGEISVRHVFQCARMKQIIWARDKNSEGEESADLFLRGIGLREYSRYICFNFPFTHEQSLLSHLRFFPWDADVDKFKAWRQGRTGYPLVDAGMRELWATGWMHNRIRVIVSSFAVKFLLLPWKWGMKYFWDTLLDADLECDILGWQYISGSIPDGHELDRLDNPALQGAKYDPEGEYIRQWLPELARLPTEWIHHPWDAPLTVLKASGVELGTNYAKPIVDIDTARELLAKAISRTREAQIMIGAAPDEIVADSFEALGANTIKEPGLCPSVSSNDQQVPSAV

Variants of: B1
Assay: yeast two-hybrid growth selection (MaV203; Gal4BD-CRY2(1-535) library x Gal4AD-CIB1; URA3 reporter on SC -Trp/-Leu/-Ura) in the dark, deep sequencing before and after selection, Enrich2 scoring; three independent screens (one at 48 h, two …)
Settings: with CIB1 (CRYPTOCHROME-INTERACTING BASIC-HELIX-LOOP-HELIX 1), dark (no blue light), screens 1, 3 and 4, Svar > 0 = enriched under dark selection for CRY2-CIB1 two-hybrid growth (URA3 reporter), < 0 = depleted, relative to wild type (whose scores are 0). 'The Enrich2 software calculates, parent: 0, not an affinity, scale: Enrich2 score, numbering: uniprot, sequence starts at 1
A343G showed an enrichment of -0.899.
A343D was tested, and the enrichment was -0.747.
For A343P, the enrichment was -2.1.
Work on A343T yielded an enrichment of -0.823.
In the case of D322A, the enrichment is reported as -0.241.
D322V was tested, and the enrichment was 0.286.
D322E gave an enrichment of 0.472.
In the case of D322N, the enrichment is reported as 0.239.
In the case of D322Y, the enrichment is reported as -0.959.
For D322G, the enrichment was 0.357.
E347G gave an enrichment of -1.39.
E347A showed an enrichment of 0.457.
Work on E347K yielded an enrichment of -1.6.
For E347D, the enrichment was -0.854.
In the case of E347V, the enrichment is reported as -1.41.
For R346I, the enrichment was -1.1.
Variant R346K has an enrichment of 0.452.
Variant R346G has an enrichment of -1.54.
For R346S, the enrichment was -1.36.
P339T gave an enrichment of -0.66.
With P339L the enrichment was -1.02.
P339Q showed an enrichment of -1.15.
W321L gave an enrichment of -1.18.
In the case of W321G, the enrichment is reported as -0.157.
In the case of W321C, the enrichment is reported as -0.0126.
W321R gave an enrichment of 0.946.
Variant R332G has an enrichment of -0.0201.
R332I gave an enrichment of -0.681.
R332K showed an enrichment of -1.23.
For R332S, the enrichment was 0.5.
Variant T336A has an enrichment of -1.84.
Variant T336S has an enrichment of 0.494.
Variant T336N has an enrichment of -0.274.
T336I was tested, and the enrichment was -1.58.
For T336P, the enrichment was -0.907.
G344R gave an enrichment of -0.722.
G344V gave an enrichment of -1.21.
G344E was tested, and the enrichment was -0.724.
R335K gave an enrichment of 0.204.
For R335T, the enrichment was 1.74.
R335G was tested, and the enrichment was -1.19.
For R335S, the enrichment was -0.537.
For W353S, the enrichment was -0.64.
For W353L, the enrichment was -0.339.
W353R gave an enrichment of -1.15.
W353C showed an enrichment of -0.321.
For W353G, the enrichment was -0.0561.
In the case of D324N, the enrichment is reported as -0.413.
With D324A the enrichment was 0.0228.
D324V showed an enrichment of 2.44.
D324Y showed an enrichment of 0.863.
D324E gave an enrichment of 0.371.
D324G gave an enrichment of -0.17.
Variant V341G has an enrichment of -1.65.
V341E gave an enrichment of -1.64.
V341M showed an enrichment of -0.679.
V341A gave an enrichment of -1.68.
For V341L, the enrichment was -1.04.
In the case of K329R, the enrichment is reported as 0.366.
K329E showed an enrichment of -0.264.
K329M gave an enrichment of 0.675.
Variant K329N has an enrichment of 0.546.
In the case of K329T, the enrichment is reported as 0.41.
For F328S, the enrichment was -1.95.
F328L was tested, and the enrichment was -0.872.
Work on F328P yielded an enrichment of 0.453.
Variant F328I has an enrichment of -1.51.
For F328Y, the enrichment was -0.296.
With F328C the enrichment was -1.53.
Work on F328V yielded an enrichment of -2.43.
With V325D the enrichment was -1.89.
V325F was tested, and the enrichment was -0.532.
V325I showed an enrichment of -0.344.
In the case of V325A, the enrichment is reported as -0.239.
V325G was tested, and the enrichment was 0.408.
Work on A323D yielded an enrichment of 0.677.
Work on A323V yielded an enrichment of -0.61.
A323T was tested, and the enrichment was -0.65.
A323S showed an enrichment of 0.117.
Y338H was tested, and the enrichment was -0.584.
Y338F gave an enrichment of -0.84.
Variant Y338N has an enrichment of -1.68.

Variants of: B1
Assay: yeast two-hybrid, quantitative GalUAS-lacZ (beta-galactosidase) reporter assay
Settings: with itself; dark; strain AH109; parent: 25; read off a plot
For chain 1 W374A, the response was 170 Miller units.

Same assay, conditions: with itself; light; strain AH109; parent: 220; read off a plot
For chain 1 W374A, the response was 180 Miller units.
